Substitutions are numbered along the chain they refer to. Names and notes keep the numbering of the source. Ends that are not written are not given here.
T1: N2 peptide (non-muscle myosin neo-epitope N2 12mer sequence)
T1 construct: also called N2 12-mer peptide
T1 peptide: LMKNMDPLNDNV

T2: Biotin-labeled N2 peptide (also: biotin label, position not given here)
T2 construct: also called immobilized N2
T2 peptide: LMKNMDPLNDNV

B1: H4-21G6 / L2-21G6, human IgG1 N297Q (antibody, V domains shown)
VH: QVQLVQSGAEVKKPGASVKVSCKASGYTFTSYYMYWVRQAPGQGLEWMGGINPSNGGTNFNEKFKSRVTMTTDTSTSTAYMELRSLRSDDTAVYYCTRWGYDREWFAYWGQGTLVTVSS
VL: DIVMTQSPLSLPVTPGEPASISCRSSKSLLHSNGNTYLYWFLQKPGQSPQLLIYRMSNLASGVPDRFSGSGSGTDFTLKISRVEAEDVGVYYCMQHLEYPFTFGQGTKLEIKR
notes: also called H4/L2 N297Q
B2: H1-21G6 / L1-21G6 (Table 2, constant region not stated) (antibody, V domains shown)
VH: QVQLVQSGAEVVKPGASVKLSCKASGYTFTSYYMYWVKQAPGQGLEWIGGINPSNGGTNFNEKFKSKATLTVDKSASTAYMELSSLRSEDTAVYYCTRWGYDREWFAYWGQGTLVTVSS
VL: DIVMTQSPATLSVSPGERATISCRSSKSLLHSNGNTYLYWFQQKPGQPPKVLIYRMSNLASGVPARFSGSGSGTDFTLTISSVEPEDFATYYCMQHLEYPFTFGGGTKLEIKR
notes: human kappa light chain; also called H1/L1
B3: Chimeric 21G6, human heavy chain constant region IgG4 (antibody, V domains shown)
VH: B2 VH with V5Q, S7P, V11L, A40R, A76S, E82Q, R87T, T91S, S119A
VL: DIVMTQAAPSVPVTPGESVSISCRSSKSLLHSNGNTYLYWFLQRPGQSPQVLIYRMSNLASGVPDRFSGSGSGTAFTLRISRVEAEDVGVYYCMQHLEYPFTFGSGTKLEIKR
notes: Human IgG4 constant region; also called CHIgG4 / Ch; ch21G6 IgG4
B4: H2-21G6 / L1-21G6 (Table 2, constant region not stated) (antibody, V domains shown)
VH: B1 VH with M48I, R67K, V68A, T72V, T74K, T91S
VL: B2 VL
notes: human kappa light chain; also called H2/L1
B5: H2-21G6 / L2-21G6 (Table 2, constant region not stated) (antibody, V domains shown)
VH: B1 VH with M48I, R67K, V68A, T72V, T74K, T91S
VL: B1 VL
notes: human kappa light chain; also called H2/L2
B6: H3-21G6 / L3-21G6 (Table 2, constant region not stated) (antibody, V domains shown)
VH: B2 VH with V12K, A16S, L20V, K38R, L70I, A76T
VL: B1 VL with S7T, P12S, V13Y, E17Q
notes: human kappa light chain; also called H3/L3
B7: H1-21G6 / L3-21G6 (Table 2, constant region not stated) (antibody, V domains shown)
VH: B2 VH
VL: B1 VL with S7T, P12S, V13Y, E17Q
notes: human kappa light chain; also called H1/L3
B8: H2-21G6 / L3-21G6 (Table 2, constant region not stated) (antibody, V domains shown)
VH: B1 VH with M48I, R67K, V68A, T72V, T74K, T91S
VL: B1 VL with S7T, P12S, V13Y, E17Q
notes: human kappa light chain; also called H2/L3
B9: H4-21G6 / L2-21G6 (Table 3B, constant region not stated) (antibody, V domains shown)
VH: B1 VH
VL: B1 VL
notes: human kappa light chain; also called H4/L2
B10: H3-21G6 / L2-21G6 (Table 2, constant region not stated) (antibody, V domains shown)
VH: B2 VH with V12K, A16S, L20V, K38R, L70I, A76T
VL: B1 VL
notes: human kappa light chain; also called H3/L2
B11: H1-21G6 / L1-21G6, human IgG1 N297Q (antibody, V domains shown)
VH: B2 VH
VL: B2 VL
notes: also called H1/L1 N297Q
B12: Chimeric 21G6, human heavy chain constant region IgG1 (wild type) (antibody, V domains shown)
VH: B2 VH with V5Q, S7P, V11L, A40R, A76S, E82Q, R87T, T91S, S119A
VL: B3 VL
notes: also called CHIgG1 / Ch; ch21G6 IgG1
B13: H1-21G6 / L1-21G6, wild type human IgG1 (antibody, V domains shown)
VH: B2 VH
VL: B2 VL
notes: also called H1/L1
B14: H2-21G6 / L1-21G6, wild type human IgG1 (antibody, V domains shown)
VH: B1 VH with M48I, R67K, V68A, T72V, T74K, T91S
VL: B2 VL
notes: also called H2/L1
B15: H2-21G6 / L2-21G6, human IgG1 N297Q (antibody, V domains shown)
VH: B1 VH with M48I, R67K, V68A, T72V, T74K, T91S
VL: B1 VL
notes: also called H2/L2 N297Q
B16: H3-21G6 / L1-21G6, human IgG1 N297Q (antibody, V domains shown)
VH: B2 VH with V12K, A16S, L20V, K38R, L70I, A76T
VL: B2 VL
notes: also called H3/L1 N297Q

Target: T1, N2 peptide (non-muscle myosin …)
Assay: SPR (BIACORE X100), IgG capture and direct immobilization of antibody, N2 peptide in solution
From the text: (§1) The remaining sequences represent the germline sequences with the highest homology that encode productive antibody. All of the humanized sequences maintain the murine 21G6 CDR regions which are shown inside the boxes in FIG. 1. The humanized variable regions were cloned into a vector containing wild type human IgG1, human IgG1 containing a mutation at amino acid 297 (Asn 297 to Q297), human IgG4 containing a mutation at amino acid 228 (serine to proline) and human kappa light chain. Each antibody (heavy and light) combination was expressed by transient co-transfection in 293A cells (in the presence of low Ig serum). The antibody containing supernatants were collected and analyzed for binding to the N2 peptide by ELISA and BIACORE™ X100 system. All experiments were performed using a BIACORE™ X100 system. […]

Row | Kd | Binder
1 | 6000 to 11000 nM | B1

Target: T2, Biotin-labeled N2 peptide
Assay: SPR (BIACORE X100), biotin-N2 peptide on NeutrAvidin chip, antibody in solution; upper end of the printed range 1.5-4.3
From the text: as §1

Row | kon | Binder
2 | 43000 M⁻¹ s⁻¹ | B2

Target: T2, Biotin-labeled N2 peptide
Assay: SPR (BIACORE X100), biotin-N2 peptide on NeutrAvidin chip, antibody in solution; kd/ka (monovalent)
From the text: (§2) The remaining sequences represent the germline sequences with the highest homology that encode productive antibody. All of the humanized sequences maintain the murine 21G6 CDR regions which are shown inside the boxes in FIG. 1. The humanized variable regions were cloned into a vector containing wild type human IgG1, human IgG1 containing a mutation at amino acid 297 (Asn 297 to Q297), human IgG4 containing a mutation at amino acid 228 (serine to proline) and human kappa light chain. Each antibody (heavy and light) combination was expressed by transient co-transfection in 293A cells (in the presence of low Ig serum). The antibody containing supernatants were collected and analyzed for binding to the N2 peptide by ELISA and BIACORE™ X100 system. All experiments were performed using a BIACORE™ X100 system. For antibody capture experiments, a CM5 chip was prepared by 10 ul/minute injection of EDC/NHS (N-ethyl-N′-(3-dimethylaminopropyl) carbodiimide (EDC), N-hydroxysuccinimide (NHS) for 7 minutes, followed by a 10 ul/minute injection of anti-human Fc (GE Lifesciences) at a concentration of 25 ug/ml in sodium acetate at pH 5 for 3 minutes. Ethanolamine-HCl was injected for 7 minutes at 10 ul/minute. The chimeric or humanized antibodies were captured onto flow cell 2 and N2 peptide at varying concentrations was flowed over flow cells 1 and 2 at a rate of 30 ul/minute with a contact time of 120 seconds and a dissociation period of 120 seconds. Complete removal of captured antibody was accomplished by regeneration with 3M MgCl2 for 30 seconds at a flow rate of 10 ul/minute. For peptide immobilized experiments, a CM5 chip was prepared by 10 ul/minute injection of EDC/NHS (N-ethyl-N′-(3-dimethylaminopropyl) carbodiimide (EDC), N-hydroxysuccinimide (NHS) for 7 minutes, followed by a 10 ul/minute injection of NEUTRAVIDIN® protein (ThermoFisher Pierce) at a concentration of 5 ug/ml in sodium acetate, pH 5 to an immobilization response of 100-200RU. Ethanolamine-HCl was injected for 7 minutes at 10 ul/minute. Biotin-labeled N2 peptide was captured on flow channel 2 with the goal of an experimental Rmax of about 50-100RU. Purified chimeric or humanized antibodies were flowed over both flow channels at a rate of 30 ul/min for a contact time of 120 seconds and allowed to dissociate for 600 seconds.

Row | Kd | Binder
3 | 800 nM | B3
4 | 660 nM | B4
5 | 100 to 430 nM | B2
6 | 280 to 420 nM | B5
7 | 900 nM | B6
8 | 1580 nM | B7
9 | 140 nM | B8
10 | 100 nM | B9
11 | 640 nM | B10

Target: T2, Biotin-labeled N2 peptide
Assay: SPR (BIACORE X100), biotin-N2 peptide on NeutrAvidin chip, antibody in solution; steady state affinity
From the text: as §2, with “The” for “The remaining sequences represent the germline sequences with the highest homology that encode productive antibody. All of the humanized sequences maintain the murine 21G6 CDR regions which are shown inside the boxes in FIG. 1. The”

Row | Kd | Binder
12 | 113 nM | B3
13 | 320 nM | B2
14 | 240 nM | B5
15 | 1000 nM | B7
16 | 680 nM | B8

Target: T2, Biotin-labeled N2 peptide
Assay: SPR (BIACORE X100), biotin-N2 peptide on NeutrAvidin chip, antibody in solution; upper end of the printed range 2.0-3.2
From the text: as §1

Row | kon | Binder
17 | 32000 M⁻¹ s⁻¹ | B5

Target: T1, N2 peptide (non-muscle myosin …)
Assay: SPR (BIACORE X100), antibody captured by anti-human Fc, N2 peptide in solution
From the text: as §2

Row | Kd | Binder
18 | 9000 nM | B11
19 | 6000 to 7000 nM | B12
20 | 4100 nM | B3
21 | 6600 to 7700 nM | B13
22 | 9800 to 11000 nM | B14
23 | 3100 to 3700 nM | B15
24 | 20000 nM | B16

Target: T2, Biotin-labeled N2 peptide
Assay: SPR (BIACORE X100), biotin-N2 peptide on NeutrAvidin chip, antibody in solution; upper end of the printed range 8.6-9.1
From the text: as §1

Row | koff | Binder
25 | 0.0091 s⁻¹ | B5

Target: T2, Biotin-labeled N2 peptide
Assay: SPR (BIACORE X100), biotin-N2 peptide on NeutrAvidin chip, antibody in solution; upper end of the printed range 4.3-6.5
From the text: as §1

Row | koff | Binder
26 | 0.0065 s⁻¹ | B2
